Assay results taken from patent US12281162 (LANOVA MEDICINES DEVELOPMENT, dated 2025).
Substitutions are numbered along the chain they refer to.

B1: 58-H1L1 (antibody, V domains shown)
VH: QVQLVQSGAEVKKPGASVKVSCKASGYSFTGYYIHWVRQAPGQGLEWMGYISSYNAATSFNQKFKGRVTMTRDTSTSTVYMELSSLRSEDTAVYYCARTELRGPWFAYWGQGTLVTVSS
VL: DIQMTQSPSSLSASVGDRVTITCSASSSVSYMNWYQQKPGKAPKLLIYDTSKLASGVPSRFSGSGSGTDFTLTISSLQPEDFATYYCQQWSNNPLTFGQGTKLEIK
notes: humanized 58F9G10, VH v1 x VL v1
B2: 58-H3L1 (antibody, V domains shown)
VH: B1 VH with R38K, M48I, M70F, R72V, L83F
VL: B1 VL
notes: humanized 58F9G10, VH v3 x VL v1
B3: 37-H2L2 (antibody, V domains shown)
VH: EVQLVESGGGLVQPGGSLRLSCAASGFTFSDYWMNWVRQSPGKGLEWVAEIRLKSNNYATHYAESVKGRFTISRDNAKSSLYLQMNSLRAEDTAVYYCTRPLLWFRRYYAMDYWGQGTLVTVSS
VL: DIQMTQSPSSLSASVGDRVTITCSASQGISNYLNWYQQKPGKTVKLLIYYTSSLHSGVPSRFSGSGSGTDYTLTISSLQPEDFATYYCQQYSKLPFTFGQGTKLEIK
notes: humanized 37B9C4, VH v2 x VL v2
B4: 37-H1L2 (antibody, V domains shown)
VH: B3 VH with S40A, S79N, T99A
VL: B3 VL
notes: humanized 37B9C4, VH v1 x VL v2
B5: 37-H1L3 (antibody, V domains shown)
VH: B3 VH with S40A, S79N, T99A
VL: B3 VL with V19I, Q100S
notes: humanized 37B9C4, VH v1 x VL v3
B6: 37-H2L1 (antibody, V domains shown)
VH: B3 VH
VL: B3 VL with T43A, V44P, Y71F
notes: humanized 37B9C4, VH v2 x VL v1
B7: 37-H2L3 (antibody, V domains shown)
VH: B3 VH
VL: B3 VL with V19I, Q100S
notes: humanized 37B9C4, VH v2 x VL v3
B8: 37-H3L1 (antibody, V domains shown)
VH: B3 VH with N76D, A77S, L81V
VL: B3 VL with T43A, V44P, Y71F
notes: humanized 37B9C4, VH v3 x VL v1
B9: 37-H3L2 (antibody, V domains shown)
VH: B3 VH with N76D, A77S, L81V
VL: B3 VL
notes: humanized 37B9C4, VH v3 x VL v2
B10: 37-H3L3 (antibody, V domains shown)
VH: B3 VH with N76D, A77S, L81V
VL: B3 VL with V19I, Q100S
notes: humanized 37B9C4, VH v3 x VL v3
B11: 34-H2L2 (antibody, V domains shown)
VH: EVQLVESGGGLVKPGGSLRLSCAASGFTFSSYGMSWVRQTPGKGLEWVATISSGGSYTYYPDSVKGRFTISRDNAKNSLYLQMSSLRAEDTAVYYCARQGGDAMDYWGQGTLVTVSS
VL: DIQMTQSPSSLSASVGDRVTITCRASQSINNNLHWYQQKPGKAPKLLIYYASQSISGIPSRFSGSGSGTDFTLTISSVQPEDFATYFCQQSNSRLTFGGGTKVEIK
notes: humanized 34D3H1, VH v2 x VL v2
B12: 34-H1L2 (antibody, V domains shown)
VH: B11 VH with T40A, A49S, S84N
VL: B11 VL
notes: humanized 34D3H1, VH v1 x VL v2
B13: 34-H1L3 (antibody, V domains shown)
VH: B11 VH with T40A, A49S, S84N
VL: B11 VL with M4L, A43S, V103L
notes: humanized 34D3H1, VH v1 x VL v3
B14: 34-H1L4 (antibody, V domains shown)
VH: B11 VH with T40A, A49S, S84N
VL: B11 VL with Q3V, M4L, A13V, I21L, A43S, V103L
notes: humanized 34D3H1, VH v1 x VL v4
B15: 34-H2L1 (antibody, V domains shown)
VH: B11 VH
VL: B11 VL with I58V, V78L, F87Y
notes: humanized 34D3H1, VH v2 x VL v1
B16: 34-H2L3 (antibody, V domains shown)
VH: B11 VH
VL: B11 VL with M4L, A43S, V103L
notes: humanized 34D3H1, VH v2 x VL v3
B17: 34-H2L4 (antibody, V domains shown)
VH: B11 VH
VL: B11 VL with Q3V, M4L, A13V, I21L, A43S, V103L
notes: humanized 34D3H1, VH v2 x VL v4
B18: 34-H3L1 (antibody, V domains shown)
VH: B11 VH with Q3H, G44R, Y80N
VL: B11 VL with I58V, V78L, F87Y
notes: humanized 34D3H1, VH v3 x VL v1
B19: 34-H3L2 (antibody, V domains shown)
VH: B11 VH with Q3H, G44R, Y80N
VL: B11 VL
notes: humanized 34D3H1, VH v3 x VL v2
B20: 34-H3L3 (antibody, V domains shown)
VH: B11 VH with Q3H, G44R, Y80N
VL: B11 VL with M4L, A43S, V103L
notes: humanized 34D3H1, VH v3 x VL v3
B21: 34-H3L4 (antibody, V domains shown)
VH: B11 VH with Q3H, G44R, Y80N
VL: B11 VL with Q3V, M4L, A13V, I21L, A43S, V103L
notes: humanized 34D3H1, VH v3 x VL v4

target: T1, human G-protein-coupled receptor family C group 5 member D (GPRC5D) (human, UniProt Q9NZD1 1-345); assay: FACS, CHO-K1/human GPRC5D
T1 construct: whole, on cells; also called human GPRC5D protein
T1 sequence (Q9NZD1 whole entry): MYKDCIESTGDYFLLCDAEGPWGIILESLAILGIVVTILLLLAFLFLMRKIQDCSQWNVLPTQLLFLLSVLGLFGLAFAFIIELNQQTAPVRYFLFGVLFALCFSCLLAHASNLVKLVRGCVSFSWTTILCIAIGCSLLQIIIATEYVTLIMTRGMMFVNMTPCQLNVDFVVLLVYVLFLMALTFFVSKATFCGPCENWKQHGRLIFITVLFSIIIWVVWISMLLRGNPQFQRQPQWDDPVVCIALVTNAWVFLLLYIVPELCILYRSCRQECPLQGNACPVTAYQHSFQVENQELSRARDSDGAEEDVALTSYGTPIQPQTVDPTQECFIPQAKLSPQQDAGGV

**Q.** For B1, which Bottom is on record?
**A.** The Bottom was 275.

**Q.** And the LogEC50?
**A.** The LogEC50 was 0.579.

**Q.** And the Span?
**A.** Its Span is 99200.

**Q.** And the Top?
**A.** The Top was 99500.

**Q.** Which Bottom does the source give for B2 here?
**A.** The Bottom was 75.4.

**Q.** And the LogEC50?
**A.** Its LogEC50 is 0.612.

**Q.** What about the Span of the same binder?
**A.** The Span was 104000.

**Q.** What about the Top of the same binder?
**A.** The Top was 104000.

target: T1, human G-protein-coupled receptor family …; assay: FACS, NCI-H929 cells

**Q.** For B1, which Bottom is on record?
**A.** Its Bottom is 281.

**Q.** And the LogEC50?
**A.** The LogEC50 was 0.165.

**Q.** What about the Span of the same binder?
**A.** Its Span is 13200.

**Q.** What about the Top of the same binder?
**A.** Its Top is 13500.

**Q.** What does the source list for B2?
**A.** Bottom: 276; LogEC50: 0.3; Span: 13700; Top: 13900

target: T1, human G-protein-coupled receptor family …; assay: FACS, CHO-K1/GPRC5D

**Q.** For B3, which Bottom is on record?
**A.** The Bottom was 9380.

**Q.** What about the LogEC50 of the same binder?
**A.** The LogEC50 was 0.345.

**Q.** And the Span?
**A.** Its Span is 166000.

**Q.** And the Top?
**A.** The Top was 175000.

**Q.** What does the source list for B4?
**A.** Bottom: 8850; LogEC50: 0.35; Span: 173000; Top: 182000

**Q.** With B5 as the binder, how does the Bottom read?
**A.** Its Bottom is 10400.

**Q.** And the LogEC50?
**A.** The LogEC50 was 0.233.

**Q.** And the Span?
**A.** The Span was 163000.

**Q.** What about the Top of the same binder?
**A.** Its Top is 173000.

**Q.** What does the source list for B6?
**A.** Bottom: 9180; LogEC50: 0.351; Span: 166000; Top: 175000

**Q.** Which results are given for B7?
**A.** Bottom: 8050; LogEC50: 0.333; Span: 160000; Top: 168000

**Q.** B8 was tested. Which Bottom did it give?
**A.** The Bottom was 6370.

**Q.** And the LogEC50?
**A.** Its LogEC50 is 0.292.

**Q.** And the Span?
**A.** Its Span is 173000.

**Q.** What about the Top of the same binder?
**A.** Its Top is 179000.

**Q.** Which results are given for B9?
**A.** Bottom: 9190; LogEC50: 0.315; Span: 170000; Top: 179000

**Q.** Which results are given for B10?
**A.** Bottom: 7780; LogEC50: 0.285; Span: 173000; Top: 181000

target: T1, human G-protein-coupled receptor family …; assay: FACS, CHO-K1/GPRC5D; remark: another data set of the same source

**Q.** For B1, which Bottom is on record?
**A.** The Bottom was 15000.

**Q.** What about the LogEC50 of the same binder?
**A.** The LogEC50 was 0.252.

**Q.** What about the Span of the same binder?
**A.** The Span was 92800.

**Q.** What about the Top of the same binder?
**A.** Its Top is 108000.

**Q.** For B2, which Bottom is on record?
**A.** Its Bottom is 9890.

**Q.** What about the LogEC50 of the same binder?
**A.** Its LogEC50 is -0.192.

**Q.** What about the Span of the same binder?
**A.** The Span was 93800.

**Q.** And the Top?
**A.** The Top was 104000.

target: T1, human G-protein-coupled receptor family …; assay: FACS, CHO-K1/GPRC5D; remark: another data set of the same source

**Q.** B11 was tested. Which Bottom did it give?
**A.** The Bottom was 8740.

**Q.** What about the LogEC50 of the same binder?
**A.** Its LogEC50 is 0.625.

**Q.** What about the Span of the same binder?
**A.** The Span was 170000.

**Q.** What about the Top of the same binder?
**A.** Its Top is 179000.

**Q.** B12 was tested. Which Bottom did it give?
**A.** Its Bottom is 13900.

**Q.** What about the LogEC50 of the same binder?
**A.** Its LogEC50 is 0.584.

**Q.** And the Span?
**A.** The Span was 168000.

**Q.** And the Top?
**A.** Its Top is 182000.

**Q.** Which Bottom does the source give for B13 here?
**A.** Its Bottom is 10600.

**Q.** And the LogEC50?
**A.** Its LogEC50 is 0.573.

**Q.** What about the Span of the same binder?
**A.** The Span was 175000.

**Q.** And the Top?
**A.** Its Top is 186000.

**Q.** What does the source list for B14?
**A.** Bottom: 10300; LogEC50: 0.6; Span: 179000; Top: 189000

**Q.** Which results are given for B15?
**A.** Bottom: 7850; LogEC50: 0.619; Span: 179000; Top: 187000

**Q.** For B16, which Bottom is on record?
**A.** The Bottom was 7060.

**Q.** And the LogEC50?
**A.** The LogEC50 was 0.583.

**Q.** And the Span?
**A.** Its Span is 179000.

**Q.** And the Top?
**A.** Its Top is 186000.

**Q.** For B17, which Bottom is on record?
**A.** The Bottom was 4390.

**Q.** What about the LogEC50 of the same binder?
**A.** The LogEC50 was 0.609.

**Q.** What about the Span of the same binder?
**A.** Its Span is 188000.

**Q.** And the Top?
**A.** The Top was 192000.

**Q.** For B18, which Bottom is on record?
**A.** The Bottom was 11100.

**Q.** What about the LogEC50 of the same binder?
**A.** The LogEC50 was 0.521.

**Q.** And the Span?
**A.** The Span was 167000.

**Q.** What about the Top of the same binder?
**A.** The Top was 178000.

**Q.** How did the Bottom turn out when B19 was run?
**A.** The Bottom was 9040.

**Q.** What about the LogEC50 of the same binder?
**A.** Its LogEC50 is 0.646.

**Q.** And the Span?
**A.** The Span was 171000.

**Q.** What about the Top of the same binder?
**A.** Its Top is 180000.

**Q.** Which results are given for B20?
**A.** Bottom: 9120; LogEC50: 0.651; Span: 184000; Top: 193000

**Q.** B21 was tested. Which Bottom did it give?
**A.** The Bottom was 12800.

**Q.** What about the LogEC50 of the same binder?
**A.** Its LogEC50 is 0.598.

**Q.** And the Span?
**A.** Its Span is 180000.

**Q.** And the Top?
**A.** The Top was 193000.
